Laboratory results: article PMC7034832, “Systematic analysis of the binding behaviour of UHRF1 towards different methyl- and carboxylcytosine modification patterns at CpG dyads”

Legend:
[1] = target: T1, SRA domain of mouse UHRF1 (Mus musculus, UniProt Q8VDF2 419-628); experiment: MST; MST: PBS-T (0.05% Tween-20), 50 nM labelled SRA, 20 min, room temperature; EMSA: 20 mM Tris-HCl pH 7.5, 150 mM NaCl, 0.5 mM EDTA, 1 mM DTT, 100 ng/ul BSA, 250 nM of each DNA, 4.69-300 nM protein, 30 min on ice, 6% PAGE 0.5x TBE; melting: 50 mM Tris-HCl pH 7.5, 0.5 mM b-ME, 10 mM EDTA; conditions: protein: recombinant, tags: His6, NT-647 (RED-tris-NTA) label in MST
T1 sequence: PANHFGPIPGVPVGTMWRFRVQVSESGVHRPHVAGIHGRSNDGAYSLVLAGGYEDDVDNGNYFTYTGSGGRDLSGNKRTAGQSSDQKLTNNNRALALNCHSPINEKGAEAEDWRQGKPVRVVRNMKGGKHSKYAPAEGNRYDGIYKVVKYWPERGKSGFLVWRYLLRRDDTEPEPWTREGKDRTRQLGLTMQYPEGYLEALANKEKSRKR

GFP-mUHRF1 (Np95) = target: T2, GFP-mUHRF1 (Np95) (Mus musculus, UniProt Q8VDF2 1-782); experiment: EMSA, two-colour competition; ATTO647N C-C' DNA as competitor; MST: PBS-T (0.05% Tween-20), 50 nM labelled SRA, 20 min, room temperature; EMSA: 20 mM Tris-HCl pH 7.5, 150 mM NaCl, 0.5 mM EDTA, 1 mM DTT, 100 ng/ul BSA, 250 nM of each DNA, 4.69-300 nM protein, 30 min on ice, 6% PAGE 0.5x TBE; melting: 50 mM Tris-HCl pH 7.5, 0.5 mM b-ME, 10 mM EDTA; conditions: protein: recombinant; tags: GFP (N-terminal by name); label: ATTO550 (EMSA)
T2 sequence: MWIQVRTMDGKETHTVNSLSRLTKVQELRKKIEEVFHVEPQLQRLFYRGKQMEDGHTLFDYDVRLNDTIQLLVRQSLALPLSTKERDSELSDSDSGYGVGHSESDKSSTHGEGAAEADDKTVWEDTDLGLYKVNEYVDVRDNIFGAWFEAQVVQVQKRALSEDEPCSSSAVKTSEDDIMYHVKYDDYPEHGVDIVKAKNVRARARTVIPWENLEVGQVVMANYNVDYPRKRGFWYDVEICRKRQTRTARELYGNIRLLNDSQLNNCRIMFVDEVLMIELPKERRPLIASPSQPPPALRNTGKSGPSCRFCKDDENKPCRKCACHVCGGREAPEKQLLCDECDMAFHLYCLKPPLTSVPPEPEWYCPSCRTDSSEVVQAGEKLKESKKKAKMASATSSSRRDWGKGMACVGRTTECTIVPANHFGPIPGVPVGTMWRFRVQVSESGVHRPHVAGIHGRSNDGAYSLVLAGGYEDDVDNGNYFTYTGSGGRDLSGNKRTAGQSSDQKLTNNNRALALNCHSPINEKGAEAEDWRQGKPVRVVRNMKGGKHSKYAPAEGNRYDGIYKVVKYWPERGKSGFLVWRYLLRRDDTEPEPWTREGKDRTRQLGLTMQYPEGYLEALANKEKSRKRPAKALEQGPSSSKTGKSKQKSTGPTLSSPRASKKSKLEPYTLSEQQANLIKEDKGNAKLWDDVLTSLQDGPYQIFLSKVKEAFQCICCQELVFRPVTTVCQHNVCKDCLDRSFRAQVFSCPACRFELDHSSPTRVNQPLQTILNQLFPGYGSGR

mUHRF2-GFP = target: T3, mUHRF2-GFP (Mus musculus, UniProt Q7TMI3 1-803); experiment: as above; conditions: protein: recombinant; tags: GFP (C-terminal by name); label: ATTO550 (EMSA)
T3 sequence: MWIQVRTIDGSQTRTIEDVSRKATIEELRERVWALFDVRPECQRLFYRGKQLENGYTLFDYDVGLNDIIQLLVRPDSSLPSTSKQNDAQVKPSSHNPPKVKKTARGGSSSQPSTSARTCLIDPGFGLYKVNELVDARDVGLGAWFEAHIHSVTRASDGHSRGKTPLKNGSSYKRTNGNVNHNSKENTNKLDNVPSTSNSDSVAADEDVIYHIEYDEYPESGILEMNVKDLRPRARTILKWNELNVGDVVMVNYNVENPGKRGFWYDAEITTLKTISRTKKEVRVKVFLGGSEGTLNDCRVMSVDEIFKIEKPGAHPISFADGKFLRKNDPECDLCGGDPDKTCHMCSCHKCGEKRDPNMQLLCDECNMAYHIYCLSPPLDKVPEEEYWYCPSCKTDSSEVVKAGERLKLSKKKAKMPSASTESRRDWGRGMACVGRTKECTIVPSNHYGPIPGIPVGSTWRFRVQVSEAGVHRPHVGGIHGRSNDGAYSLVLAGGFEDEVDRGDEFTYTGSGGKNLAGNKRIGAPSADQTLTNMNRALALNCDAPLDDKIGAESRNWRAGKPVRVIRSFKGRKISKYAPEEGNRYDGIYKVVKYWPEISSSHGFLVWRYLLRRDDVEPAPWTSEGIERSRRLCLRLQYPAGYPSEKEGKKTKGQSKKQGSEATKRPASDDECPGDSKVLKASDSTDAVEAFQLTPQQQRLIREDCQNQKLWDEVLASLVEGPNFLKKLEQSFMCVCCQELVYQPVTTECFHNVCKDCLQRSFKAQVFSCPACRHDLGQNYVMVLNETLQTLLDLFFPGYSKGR

B1: 42 bp C-C' (dsDNA)
DNA 1: GGATGATGACTCTTCTGGTCCGGATGGTAGTTAAGTGTTGAG
DNA 2: CTCAACACTTAACTACCATCCGGACCAGAAGAGTCATCATCC
modifications: none
Binder B1 has a Kd ([1]; label: ATTO550 or ATTO647N (EMSA)) of 1100 ± 150 nM.

B2: 42 bp mC-caC' (dsDNA)
DNA 1: GGATGATGACTCTTCTGGTCCGGATGGTAGTTAAGTGTTGAG
DNA 2: CTCAACACTTAACTACCATCCGGACCAGAAGAGTCATCATCC
modifications: 5-methylcytosine on one strand, 5-carboxylcytosine on the other at central CpG
Work on B2 yielded a Kd [1] of 390 ± 110 nM.

B3: 42 bp mC-C' (dsDNA)
DNA 1: GGATGATGACTCTTCTGGTCCGGATGGTAGTTAAGTGTTGAG
DNA 2: CTCAACACTTAACTACCATCCGGACCAGAAGAGTCATCATCC
modifications: 5-methylcytosine at central CpG, one strand
B3 gave a binding signal (GFP-mUHRF1 (Np95)) of roughly 1.5 fold vs C-C' and a Kd ([1]; label: ATTO550 (EMSA)) of 750 ± 110 nM.

B4: 42 bp caC-caC' (dsDNA)
DNA 1: GGATGATGACTCTTCTGGTCCGGATGGTAGTTAAGTGTTGAG
DNA 2: CTCAACACTTAACTACCATCCGGACCAGAAGAGTCATCATCC
modifications: 5-carboxylcytosine at central CpG, both strands
In the case of B4, the binding signal (GFP-mUHRF1 (Np95)) is reported as roughly 2 fold vs C-C', the Kd ([1]; label: ATTO550 (EMSA)) is reported as 230 ± 50 nM and the binding signal (mUHRF2-GFP) is reported as roughly 2 fold vs C-C'.

B5: 42 bp caC-C' (dsDNA)
DNA 1: GGATGATGACTCTTCTGGTCCGGATGGTAGTTAAGTGTTGAG
DNA 2: CTCAACACTTAACTACCATCCGGACCAGAAGAGTCATCATCC
modifications: 5-carboxylcytosine at central CpG, one strand
B5 was tested, and the Kd ([1]; label: ATTO550 (EMSA)) was 1100 ± 290 nM.
